Results from article PMC9230529.

Molecular target: CD16a ectodomain (Human CD16a, amino acids Met1-Gln208, C-terminal His-tag) (human)
Experiment: BLI

## SARS-CoV-2 ORF8 (aa16-121), His Tag (from UniProt P0DTC8 16-121) (natural protein)
  Kd: 38.9 nM
